Test results as given in IntAct's records for PubMed 31515488.
Blank lines part the entries; values can stand above or below the substance they belong to.

How the values were obtained:
aakb2_human PRKAB2 = aakb2_human PRKAB2 (UniProt O43741)
zbt24_human ZBTB24 = zbt24_human ZBTB24 (UniProt O43167)
lnx1_human LNX1 = lnx1_human LNX1 (UniProt Q8TBB1)
ck068_human C11orf68 = ck068_human C11orf68 (UniProt Q9H3H3)
nasp_human NASP = nasp_human NASP (UniProt P49321)
zsc32_human ZSCAN32 = zsc32_human ZSCAN32 (UniProt Q9NX65)
trip6_human TRIP6 = trip6_human TRIP6 (UniProt Q15654)
Sequence of trip6_human TRIP6 (Q15654 whole entry): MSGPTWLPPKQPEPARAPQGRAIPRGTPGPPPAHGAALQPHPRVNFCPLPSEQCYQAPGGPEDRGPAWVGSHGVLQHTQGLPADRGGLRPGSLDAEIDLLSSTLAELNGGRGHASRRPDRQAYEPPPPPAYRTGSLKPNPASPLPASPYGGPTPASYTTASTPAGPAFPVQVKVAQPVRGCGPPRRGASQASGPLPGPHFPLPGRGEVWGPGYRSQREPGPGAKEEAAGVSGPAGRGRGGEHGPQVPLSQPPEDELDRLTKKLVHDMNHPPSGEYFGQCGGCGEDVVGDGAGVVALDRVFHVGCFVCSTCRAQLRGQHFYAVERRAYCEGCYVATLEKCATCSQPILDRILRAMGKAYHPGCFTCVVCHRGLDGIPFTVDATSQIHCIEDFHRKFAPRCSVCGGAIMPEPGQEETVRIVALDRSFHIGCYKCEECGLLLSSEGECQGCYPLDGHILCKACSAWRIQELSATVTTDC

bnip3_human BNIP3 = bnip3_human BNIP3 (UniProt Q12983)
Sequence of bnip3_human BNIP3 (Q12983 whole entry): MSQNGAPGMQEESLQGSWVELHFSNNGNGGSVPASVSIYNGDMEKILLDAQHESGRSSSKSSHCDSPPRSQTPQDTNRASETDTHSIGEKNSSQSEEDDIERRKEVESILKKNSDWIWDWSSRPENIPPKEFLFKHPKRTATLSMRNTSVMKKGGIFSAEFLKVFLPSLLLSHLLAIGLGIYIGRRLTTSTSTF

ppla_human PLN = ppla_human PLN (UniProt P26678)
vatl_human ATP6V0C = vatl_human ATP6V0C (UniProt P27449)
mal_human MAL = mal_human MAL (UniProt P21145)
Sequence of mal_human MAL (P21145 whole entry): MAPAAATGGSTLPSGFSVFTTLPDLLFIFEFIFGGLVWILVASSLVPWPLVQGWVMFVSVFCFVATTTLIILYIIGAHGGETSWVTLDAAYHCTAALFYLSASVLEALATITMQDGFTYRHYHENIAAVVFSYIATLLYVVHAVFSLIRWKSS

emp3_human EMP3 = emp3_human EMP3 (UniProt P54852)
efhc2_human EFHC2 = target: T1, efhc2_human EFHC2 (UniProt Q5JST6)
T1 sequence: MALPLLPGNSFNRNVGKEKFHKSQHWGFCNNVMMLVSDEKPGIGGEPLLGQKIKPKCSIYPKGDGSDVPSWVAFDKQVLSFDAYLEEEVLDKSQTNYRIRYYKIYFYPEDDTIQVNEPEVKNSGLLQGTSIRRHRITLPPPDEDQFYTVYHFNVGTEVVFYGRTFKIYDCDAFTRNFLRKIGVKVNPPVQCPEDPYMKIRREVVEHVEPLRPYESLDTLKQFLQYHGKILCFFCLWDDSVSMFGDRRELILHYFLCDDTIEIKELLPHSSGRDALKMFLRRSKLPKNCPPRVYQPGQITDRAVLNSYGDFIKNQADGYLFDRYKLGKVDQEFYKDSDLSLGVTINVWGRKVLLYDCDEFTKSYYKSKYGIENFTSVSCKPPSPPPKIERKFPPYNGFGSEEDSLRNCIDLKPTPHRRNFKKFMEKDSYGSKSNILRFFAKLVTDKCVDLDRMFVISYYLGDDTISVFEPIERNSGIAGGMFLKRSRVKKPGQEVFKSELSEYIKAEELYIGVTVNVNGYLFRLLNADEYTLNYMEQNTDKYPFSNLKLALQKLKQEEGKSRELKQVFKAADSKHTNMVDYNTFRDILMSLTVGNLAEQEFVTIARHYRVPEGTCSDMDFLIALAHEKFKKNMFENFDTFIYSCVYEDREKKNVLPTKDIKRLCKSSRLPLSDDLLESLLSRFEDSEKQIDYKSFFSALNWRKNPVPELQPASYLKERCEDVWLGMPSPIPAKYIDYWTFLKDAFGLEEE

pls1_human PLSCR1 = pls1_human PLSCR1 (UniProt O15162)
Sequence of pls1_human PLSCR1 (O15162 whole entry): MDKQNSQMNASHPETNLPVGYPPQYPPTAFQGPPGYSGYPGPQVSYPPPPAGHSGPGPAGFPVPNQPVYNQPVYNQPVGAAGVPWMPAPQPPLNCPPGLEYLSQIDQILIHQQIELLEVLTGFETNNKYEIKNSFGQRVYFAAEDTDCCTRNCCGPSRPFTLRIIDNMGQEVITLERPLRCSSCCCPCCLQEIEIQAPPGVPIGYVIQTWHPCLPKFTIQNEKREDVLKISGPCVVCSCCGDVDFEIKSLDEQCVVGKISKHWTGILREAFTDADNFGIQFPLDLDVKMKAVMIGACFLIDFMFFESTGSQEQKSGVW

cep70_human CEP70 = cep70_human CEP70 (UniProt Q8NHQ1)
traf4_human TRAF4 = target: T2, traf4_human TRAF4 (UniProt Q9BUZ4)
T2 sequence: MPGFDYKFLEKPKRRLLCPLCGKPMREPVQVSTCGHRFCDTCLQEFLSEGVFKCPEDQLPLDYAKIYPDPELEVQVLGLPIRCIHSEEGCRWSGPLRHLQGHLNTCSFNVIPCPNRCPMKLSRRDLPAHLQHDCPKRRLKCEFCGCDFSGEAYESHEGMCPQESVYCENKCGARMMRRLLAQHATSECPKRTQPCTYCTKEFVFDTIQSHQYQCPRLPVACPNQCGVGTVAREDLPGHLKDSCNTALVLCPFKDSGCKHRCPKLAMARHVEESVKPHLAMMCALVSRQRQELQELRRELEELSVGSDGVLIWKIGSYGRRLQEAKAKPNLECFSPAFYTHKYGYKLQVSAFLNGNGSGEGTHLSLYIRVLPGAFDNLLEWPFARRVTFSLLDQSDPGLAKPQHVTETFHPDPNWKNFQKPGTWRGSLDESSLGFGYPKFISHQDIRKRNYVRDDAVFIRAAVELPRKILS

pacn1_human PACSIN1 = pacn1_human PACSIN1 (UniProt Q9BY11)
lerl1_human LEPROTL1 = lerl1_human LEPROTL1 (UniProt O95214)
Sequence of lerl1_human LEPROTL1 (O95214 whole entry): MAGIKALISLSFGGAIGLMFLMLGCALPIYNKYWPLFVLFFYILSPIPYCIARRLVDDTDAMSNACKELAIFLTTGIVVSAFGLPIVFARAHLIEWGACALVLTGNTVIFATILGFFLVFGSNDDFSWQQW

npal3_human NIPAL3 = npal3_human NIPAL3 (UniProt Q6P499)
dpyl5_human DPYSL5 = target: T3, dpyl5_human DPYSL5 (UniProt Q9BPU6)
T3 sequence: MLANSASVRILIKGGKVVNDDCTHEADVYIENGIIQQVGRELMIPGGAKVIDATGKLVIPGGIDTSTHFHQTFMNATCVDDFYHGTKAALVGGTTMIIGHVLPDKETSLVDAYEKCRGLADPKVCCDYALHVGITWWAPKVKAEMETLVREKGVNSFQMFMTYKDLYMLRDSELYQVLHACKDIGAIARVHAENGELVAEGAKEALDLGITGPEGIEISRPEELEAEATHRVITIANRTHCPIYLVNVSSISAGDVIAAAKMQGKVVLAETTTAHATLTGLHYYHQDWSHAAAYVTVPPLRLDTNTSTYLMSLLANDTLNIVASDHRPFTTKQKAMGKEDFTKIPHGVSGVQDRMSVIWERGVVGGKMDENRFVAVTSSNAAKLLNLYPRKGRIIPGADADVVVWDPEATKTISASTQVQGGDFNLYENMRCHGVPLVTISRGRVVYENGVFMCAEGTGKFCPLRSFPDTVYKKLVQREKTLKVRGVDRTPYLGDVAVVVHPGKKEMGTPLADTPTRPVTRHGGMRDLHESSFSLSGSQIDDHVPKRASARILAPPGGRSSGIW

gors2_human GORASP2 = gors2_human GORASP2 (UniProt Q9H8Y8)
dpyl3_human DPYSL3 = dpyl3_human DPYSL3 (UniProt Q14195)
dpyl2_human DPYSL2 [1] = target: dpyl2_human DPYSL2 (UniProt Q16555)
creb3_human CREB3 = target: T4, creb3_human CREB3 (UniProt O43889)
T4 sequence: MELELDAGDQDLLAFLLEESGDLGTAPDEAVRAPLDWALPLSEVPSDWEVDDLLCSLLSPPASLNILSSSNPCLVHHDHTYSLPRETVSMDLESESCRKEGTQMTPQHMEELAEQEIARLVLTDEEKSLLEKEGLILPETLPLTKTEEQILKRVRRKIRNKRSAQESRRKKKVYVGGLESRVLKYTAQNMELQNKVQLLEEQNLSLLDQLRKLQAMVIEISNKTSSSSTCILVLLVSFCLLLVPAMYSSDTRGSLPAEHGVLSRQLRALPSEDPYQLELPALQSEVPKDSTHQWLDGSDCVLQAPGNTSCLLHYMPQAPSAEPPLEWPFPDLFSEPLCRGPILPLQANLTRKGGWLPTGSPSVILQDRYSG

BCL2L13 = BCL2L13 (UniProt Q9BXK5)
Sequence of BCL2L13 (Q9BXK5 whole entry): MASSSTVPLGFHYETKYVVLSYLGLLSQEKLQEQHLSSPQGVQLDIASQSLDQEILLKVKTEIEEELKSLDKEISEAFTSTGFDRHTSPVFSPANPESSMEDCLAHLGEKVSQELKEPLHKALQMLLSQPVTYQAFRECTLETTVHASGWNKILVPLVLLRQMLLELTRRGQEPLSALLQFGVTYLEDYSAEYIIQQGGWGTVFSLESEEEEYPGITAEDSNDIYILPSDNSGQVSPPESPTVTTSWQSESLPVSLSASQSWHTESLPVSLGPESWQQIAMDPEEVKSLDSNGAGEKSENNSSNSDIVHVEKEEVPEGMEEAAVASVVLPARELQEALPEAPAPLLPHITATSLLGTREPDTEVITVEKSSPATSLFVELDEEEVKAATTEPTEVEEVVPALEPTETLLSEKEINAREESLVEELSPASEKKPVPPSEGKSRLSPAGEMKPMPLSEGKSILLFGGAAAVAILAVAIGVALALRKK

elmo1_human ELMO1 = elmo1_human ELMO1 (UniProt Q92556)
Sequence of elmo1_human ELMO1 (Q92556 whole entry): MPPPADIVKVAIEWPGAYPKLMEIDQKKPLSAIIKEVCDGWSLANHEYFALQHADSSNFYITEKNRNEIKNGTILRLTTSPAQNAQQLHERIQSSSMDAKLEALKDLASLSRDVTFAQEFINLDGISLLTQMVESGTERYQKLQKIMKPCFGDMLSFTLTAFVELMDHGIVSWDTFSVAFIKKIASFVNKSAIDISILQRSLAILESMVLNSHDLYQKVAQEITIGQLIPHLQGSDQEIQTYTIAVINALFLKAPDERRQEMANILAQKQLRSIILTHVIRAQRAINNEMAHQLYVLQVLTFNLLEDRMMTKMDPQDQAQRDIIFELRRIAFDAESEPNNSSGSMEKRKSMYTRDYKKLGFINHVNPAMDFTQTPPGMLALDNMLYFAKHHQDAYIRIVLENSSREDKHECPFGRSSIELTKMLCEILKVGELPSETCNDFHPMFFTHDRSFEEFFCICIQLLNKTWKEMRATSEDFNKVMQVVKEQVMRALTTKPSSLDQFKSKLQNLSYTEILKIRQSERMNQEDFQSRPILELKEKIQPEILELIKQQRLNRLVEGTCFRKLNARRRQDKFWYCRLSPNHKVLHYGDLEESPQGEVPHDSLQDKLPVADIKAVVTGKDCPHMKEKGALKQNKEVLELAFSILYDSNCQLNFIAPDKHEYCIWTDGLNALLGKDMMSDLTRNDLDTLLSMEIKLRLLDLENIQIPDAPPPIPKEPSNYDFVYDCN

cryaa_human CRYAA = cryaa_human CRYAA (UniProt P02489)
Sequence of cryaa_human CRYAA (P02489 whole entry): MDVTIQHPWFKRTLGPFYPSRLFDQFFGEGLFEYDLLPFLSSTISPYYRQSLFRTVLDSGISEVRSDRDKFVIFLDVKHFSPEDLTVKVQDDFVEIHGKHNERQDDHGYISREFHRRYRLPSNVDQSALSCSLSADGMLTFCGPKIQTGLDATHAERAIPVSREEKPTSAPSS

phs_human PCBD1 = phs_human PCBD1 (UniProt P61457)
prdx3_human PRDX3 = target: T5, prdx3_human PRDX3 (UniProt P30048)
T5 sequence: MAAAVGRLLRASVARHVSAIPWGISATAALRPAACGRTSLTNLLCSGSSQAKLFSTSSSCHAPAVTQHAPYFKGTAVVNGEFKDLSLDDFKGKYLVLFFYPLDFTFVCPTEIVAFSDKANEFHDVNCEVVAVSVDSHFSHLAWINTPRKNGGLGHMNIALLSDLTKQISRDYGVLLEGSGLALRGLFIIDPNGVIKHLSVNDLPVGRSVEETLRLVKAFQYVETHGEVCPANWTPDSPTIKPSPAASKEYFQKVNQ

acy3_human ACY3 = target: T6, acy3_human ACY3 (UniProt Q96HD9)
T6 sequence: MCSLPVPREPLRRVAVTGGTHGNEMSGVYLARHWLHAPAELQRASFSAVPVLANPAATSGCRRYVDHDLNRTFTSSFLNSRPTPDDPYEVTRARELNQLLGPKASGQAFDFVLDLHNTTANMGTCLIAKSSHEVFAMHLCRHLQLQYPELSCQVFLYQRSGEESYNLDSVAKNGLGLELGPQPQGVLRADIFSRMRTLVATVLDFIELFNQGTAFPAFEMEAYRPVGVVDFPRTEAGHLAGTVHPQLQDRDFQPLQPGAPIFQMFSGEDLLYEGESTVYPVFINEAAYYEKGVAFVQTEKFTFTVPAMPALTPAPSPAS

ei2ba_human EIF2B1 = ei2ba_human EIF2B1 (UniProt Q14232)
Sequence of ei2ba_human EIF2B1 (Q14232 whole entry): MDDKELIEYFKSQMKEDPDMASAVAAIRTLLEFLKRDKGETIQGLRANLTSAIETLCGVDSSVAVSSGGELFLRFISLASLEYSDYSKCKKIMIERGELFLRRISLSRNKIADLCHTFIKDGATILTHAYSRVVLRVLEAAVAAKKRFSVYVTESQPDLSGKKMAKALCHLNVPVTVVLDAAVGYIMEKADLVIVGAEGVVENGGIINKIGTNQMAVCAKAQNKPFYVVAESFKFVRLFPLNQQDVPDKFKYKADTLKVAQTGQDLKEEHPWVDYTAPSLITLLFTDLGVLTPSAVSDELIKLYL

dmc1_human DMC1 = target: T7, dmc1_human DMC1 (UniProt Q14565)
T7 sequence: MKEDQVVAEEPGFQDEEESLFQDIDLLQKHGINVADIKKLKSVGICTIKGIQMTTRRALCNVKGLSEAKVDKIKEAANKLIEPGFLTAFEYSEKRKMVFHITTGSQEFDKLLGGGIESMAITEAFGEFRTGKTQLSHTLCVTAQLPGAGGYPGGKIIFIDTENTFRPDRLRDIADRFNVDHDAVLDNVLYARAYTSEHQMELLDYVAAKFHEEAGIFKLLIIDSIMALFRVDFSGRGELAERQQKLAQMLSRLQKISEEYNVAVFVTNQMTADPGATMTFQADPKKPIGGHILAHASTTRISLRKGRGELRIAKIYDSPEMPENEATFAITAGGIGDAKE

zmat1_human ZMAT1 = zmat1_human ZMAT1 (UniProt Q5H9K5)
Sequence of zmat1_human ZMAT1 (Q5H9K5 whole entry): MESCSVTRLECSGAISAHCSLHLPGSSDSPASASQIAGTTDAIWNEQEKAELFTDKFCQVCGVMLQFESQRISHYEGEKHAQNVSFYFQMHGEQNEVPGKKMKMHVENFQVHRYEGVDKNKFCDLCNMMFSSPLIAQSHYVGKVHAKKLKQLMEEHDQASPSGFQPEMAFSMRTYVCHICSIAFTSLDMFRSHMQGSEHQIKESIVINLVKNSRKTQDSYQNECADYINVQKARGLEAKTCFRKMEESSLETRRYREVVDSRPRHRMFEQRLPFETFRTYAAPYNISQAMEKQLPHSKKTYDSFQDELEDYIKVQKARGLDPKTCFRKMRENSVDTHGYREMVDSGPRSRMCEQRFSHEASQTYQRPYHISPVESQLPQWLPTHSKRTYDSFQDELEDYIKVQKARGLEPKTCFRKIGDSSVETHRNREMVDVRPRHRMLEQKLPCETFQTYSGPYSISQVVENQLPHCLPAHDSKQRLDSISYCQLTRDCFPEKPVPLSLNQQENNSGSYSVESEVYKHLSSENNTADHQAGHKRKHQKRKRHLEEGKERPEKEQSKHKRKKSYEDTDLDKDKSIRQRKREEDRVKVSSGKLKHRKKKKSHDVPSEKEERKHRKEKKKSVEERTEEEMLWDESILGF

dpyl2_human DPYSL2 [2] = target: dpyl2_human DPYSL2 (UniProt Q16555); remark: listed apart in the source

Sequence of Isoform 1 of Ectodysplasin-A (Homo sapiens), Q92838-1 P118L (Q92838 whole entry P118L, canonical isoform): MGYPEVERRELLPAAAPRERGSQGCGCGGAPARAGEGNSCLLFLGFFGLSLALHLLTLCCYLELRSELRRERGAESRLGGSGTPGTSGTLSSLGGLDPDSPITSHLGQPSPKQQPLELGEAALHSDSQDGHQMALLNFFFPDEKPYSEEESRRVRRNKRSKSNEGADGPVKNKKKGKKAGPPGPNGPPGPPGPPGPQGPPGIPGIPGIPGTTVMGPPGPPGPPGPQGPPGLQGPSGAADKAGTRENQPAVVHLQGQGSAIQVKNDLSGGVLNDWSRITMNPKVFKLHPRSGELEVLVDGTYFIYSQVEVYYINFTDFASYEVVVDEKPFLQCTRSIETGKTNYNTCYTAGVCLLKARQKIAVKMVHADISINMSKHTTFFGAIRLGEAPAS
Sequence of Ectodysplasin-A (Homo sapiens), Q92838 R334H (Q92838 whole entry R334H): as the sequence (Q92838 whole entry P118L, canonical isoform) above, with L118P, R334H counted along it
Sequence of Rho-related GTP-binding protein RhoQ (Homo sapiens), P17081 E68K (P17081 whole entry E68K): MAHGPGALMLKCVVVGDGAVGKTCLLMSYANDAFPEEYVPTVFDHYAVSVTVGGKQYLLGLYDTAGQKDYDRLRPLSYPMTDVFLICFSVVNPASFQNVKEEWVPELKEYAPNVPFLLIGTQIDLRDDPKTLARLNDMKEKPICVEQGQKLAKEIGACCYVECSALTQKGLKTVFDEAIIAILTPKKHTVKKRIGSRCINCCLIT
Sequence of aakb2_human PRKAB2 (O43741 whole entry): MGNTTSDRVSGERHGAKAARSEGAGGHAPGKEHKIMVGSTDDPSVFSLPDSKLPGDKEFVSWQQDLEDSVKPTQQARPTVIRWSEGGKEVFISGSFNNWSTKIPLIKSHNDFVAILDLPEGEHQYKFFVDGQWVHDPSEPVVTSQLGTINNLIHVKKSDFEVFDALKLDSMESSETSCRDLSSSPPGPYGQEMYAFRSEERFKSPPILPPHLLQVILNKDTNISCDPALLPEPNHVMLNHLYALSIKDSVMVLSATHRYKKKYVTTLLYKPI

Substance: Eukaryotic translation initiation factor 4H (Homo sapiens), Q15056 G164V
effect of a mutation on the interaction (lnx1_human LNX1): with no effect
effect of a mutation on the interaction (ck068_human C11orf68): with no effect

Substance: Histone H3.3C (Homo sapiens) (from UniProt Q6NXT2) R53C
effect of a mutation on the interaction (nasp_human NASP): with no effect

Substance: Zinc finger protein with KRAB and SCAN domains 1 (Homo sapiens), P17029 R155K
effect of a mutation on the interaction (zsc32_human ZSCAN32): with no effect

Substance: Integral membrane protein 2B (Homo sapiens) (from UniProt Q9Y287) I237T
effect of a mutation on the interaction (bnip3_human BNIP3): with no effect

Substance: Isoform 1 of Ectodysplasin-A (Homo sapiens), Q92838-1 P118L
effect of a mutation on the interaction (ppla_human PLN): with no effect
effect of a mutation on the interaction (vatl_human ATP6V0C): with no effect
effect of a mutation on the interaction (mal_human MAL): with no effect
effect of a mutation on the interaction (emp3_human EMP3): with no effect

Substance: Chloride intracellular channel protein 3 (Homo sapiens) (from UniProt O95833) M210L
effect of a mutation on the interaction (efhc2_human EFHC2): with no effect

Substance: Regulator of G-protein signaling 3 (Homo sapiens), P49796-4 R528Q
effect of a mutation on the interaction (pls1_human PLSCR1): with no effect

Substance: Zinc finger protein 302 (Homo sapiens), Q9NR11 R391H
effect of a mutation on the interaction (cep70_human CEP70): with no effect

Substance: Large ribosomal subunit protein bL28m (Homo sapiens) (from UniProt Q13084) D160E
effect of a mutation on the interaction (traf4_human TRAF4): with no effect

Substance: Dihydropyrimidinase-related protein 2 (Homo sapiens) (from UniProt Q16555-1) R481C
effect of a mutation on the interaction (dpyl5_human DPYSL5): with no effect
effect of a mutation on the interaction (gors2_human GORASP2): disrupting interaction strength
effect of a mutation on the interaction (dpyl3_human DPYSL3): disrupting interaction strength
effect of a mutation on the interaction (dpyl2_human DPYSL2 [1]): disrupting interaction strength

Substance: Integral membrane protein 2B (Homo sapiens) (from UniProt Q9Y287) P31H
effect of a mutation on the interaction (creb3_human CREB3): with no effect
effect of a mutation on the interaction (BCL2L13): with no effect

Substance: Zinc finger protein 398 (Homo sapiens), Q8TD17 E87D
effect of a mutation on the interaction (elmo1_human ELMO1): with no effect

Now from value to substance:

effect of a mutation on the interaction (aakb2_human PRKAB2): with no effect
effect of a mutation on the interaction (zbt24_human ZBTB24): with no effect
Substance: Krueppel-like factor 15 (Homo sapiens), Q9UIH9 A199V

effect of a mutation on the interaction (trip6_human TRIP6): with no effect
Substance: Rho-related GTP-binding protein RhoQ (Homo sapiens), P17081 E68K

effect of a mutation on the interaction (pacn1_human PACSIN1): disrupting interaction strength
Substance: Protein kinase C and casein kinase substrate in neurons protein 3 (Homo sapiens) (from UniProt Q9UKS6) A61V

effect of a mutation on the interaction (lerl1_human LEPROTL1): with no effect
effect of a mutation on the interaction (npal3_human NIPAL3): with no effect
Substance: Ectodysplasin-A (Homo sapiens), Q92838 R334H

effect of a mutation on the interaction (cryaa_human CRYAA): with no effect
effect of a mutation on the interaction (phs_human PCBD1): with no effect
effect of a mutation on the interaction (prdx3_human PRDX3): disrupting interaction strength
effect of a mutation on the interaction (acy3_human ACY3): with no effect
effect of a mutation on the interaction (ei2ba_human EIF2B1): with no effect
effect of a mutation on the interaction (dmc1_human DMC1): with no effect
effect of a mutation on the interaction (zmat1_human ZMAT1): with no effect
effect of a mutation on the interaction (dpyl2_human DPYSL2 [2]): with no effect
Substance: Golgi reassembly-stacking protein 2 (Homo sapiens) (from UniProt Q9H8Y8) S441C
